# PMC10065947 (Nature chemical biology, 2022)
# Biological target: TAMRA-APP12 (peptide S1) (TAMRA label (position not given); C-terminal amide)
# Assay: fluorescence polarisation
binder,measurement,value
naïve fusion of WT Fyn-SH3 and WT COMT (enzyme) not shown,Kd,330 nM
